Target: T1, LDL (purified human low-density lipoprotein, Cappel) (human, UniProt P04114 28-4563)
T1 construct: This is a lipoprotein particle, not a single protein; also called solid phase LDL
Experiment: ELISA: biotinylated envelope protein on coated LDL, streptavidin-peroxidase

B1: E2s (recombinant truncated HCV envelope protein E2, aa 384-673, genotype 1b) (other)
chain: HTRVSGGAAASNTRGLVSLFSPGSAQKIQLVNTNGSWHINRTALNCNDSLQTGFFAALFYKHKFNSSGCPERLASCRSIDKFAQGWGPLTYTEPNSSDQRPYCWHYAPRPCGIVPASQVCGPVYCFTPSPVVVGTTDRFGVPTYNWGANDSDVLILNNTRPPRGNWFGCTWMNGTGFTKTCGGPPCNIGGAGNNTLTCPTDCFRKHPEATYARCGSGPWLTPRCMVHYPYRLWHYPCTVNFTIFKVRMYVGGVEHRFGAACNWTRGERCDLEDRDRSELSPLLLSTTEWQ
modifications: biotinylated (sites not given)
notes: also called biotinylated E2
binding result: no binding

— US6670114 (N V INNOGENETICS, dated 2003)
